Article PMC12136795, “RNA modifications and Prp24 coordinate Lsm2–8 binding dynamics during S. cerevisiae U6 snRNP assembly”

Legend:
[1] = molecular target: T1, Lsm2-8fSNAP (unlabeled) (Saccharomyces cerevisiae, UniProt P38203;P57743;P40070;P40089;Q06406;P53905;P47093 …); experiment: fluorescence polarization; Hill 0.88; FP: 2x RNA stock 2 nM mixed 1:1 with protein, 100 mM NaCl, 20 mM Bis-Tris pH 7.0, 10 mM HCl, 1 mM TCEP, 5% glycerol, yeast tRNA, BSA. EMSA: 100 mM KCl, 20% sucrose, 20 mM Hepes pH 7, 1 mM EDTA, 1 mM TCEP, 0.01% Triton X-100 (RNA buffer), yeast tRNA, heparin, BSA, 30 min room temperature, 6% native PAGE at 4 C. CoSMoS buffer not in material.; conditions: protein: recombinant; tags: fast SNAP tag at C terminus of Lsm8 via flexible linker; His-tag removed with TEV; copies: 1;1;1;1;1;1;1; label: fluorophore
T1 sequence 1: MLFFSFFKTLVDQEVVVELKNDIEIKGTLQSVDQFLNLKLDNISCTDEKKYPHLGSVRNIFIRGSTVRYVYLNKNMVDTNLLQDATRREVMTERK
T1 sequence 2: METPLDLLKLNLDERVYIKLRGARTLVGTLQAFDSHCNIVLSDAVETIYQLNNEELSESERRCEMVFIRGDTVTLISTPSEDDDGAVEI
T1 sequence 3: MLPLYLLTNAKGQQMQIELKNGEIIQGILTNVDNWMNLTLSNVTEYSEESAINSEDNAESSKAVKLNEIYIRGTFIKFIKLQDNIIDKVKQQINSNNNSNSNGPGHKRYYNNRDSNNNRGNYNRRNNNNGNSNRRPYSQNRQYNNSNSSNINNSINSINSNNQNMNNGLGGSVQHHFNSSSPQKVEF
T1 sequence 4: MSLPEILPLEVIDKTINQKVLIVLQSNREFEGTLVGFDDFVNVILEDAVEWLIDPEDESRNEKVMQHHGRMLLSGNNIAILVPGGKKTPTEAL
T1 sequence 5: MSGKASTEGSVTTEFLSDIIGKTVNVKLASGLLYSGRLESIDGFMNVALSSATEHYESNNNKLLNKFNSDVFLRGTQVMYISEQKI
T1 sequence 6: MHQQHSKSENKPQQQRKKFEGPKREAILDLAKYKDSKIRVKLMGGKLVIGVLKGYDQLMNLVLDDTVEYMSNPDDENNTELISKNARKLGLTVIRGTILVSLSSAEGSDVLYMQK
T1 sequence 7: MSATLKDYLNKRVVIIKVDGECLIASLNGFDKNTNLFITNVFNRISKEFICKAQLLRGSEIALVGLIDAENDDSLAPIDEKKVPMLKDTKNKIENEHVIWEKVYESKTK

[2] = molecular target: T2, Lsm2-8 heteroheptamer WT (Saccharomyces cerevisiae, UniProt P38203;P57743;P40070;P40089;Q06406;P53905;P47093 …); experiment: fluorescence polarization; Hill 1.11; FP: 2x RNA stock 2 nM mixed 1:1 with protein, 100 mM NaCl, 20 mM Bis-Tris pH 7.0, 10 mM HCl, 1 mM TCEP, 5% glycerol, yeast tRNA, BSA. EMSA: 100 mM KCl, 20% sucrose, 20 mM Hepes pH 7, 1 mM EDTA, 1 mM TCEP, 0.01% Triton X-100 (RNA buffer), yeast tRNA, heparin, BSA, 30 min room temperature, 6% native PAGE at 4 C. CoSMoS buffer not in material.; conditions: protein: recombinant; tags: His-tag removed with TEV; copies: 1;1;1;1;1;1;1; label: fluorophore
T2 sequence 1: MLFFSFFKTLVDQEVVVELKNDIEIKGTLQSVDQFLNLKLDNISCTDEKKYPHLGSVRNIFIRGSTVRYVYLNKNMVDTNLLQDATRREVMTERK
T2 sequence 2: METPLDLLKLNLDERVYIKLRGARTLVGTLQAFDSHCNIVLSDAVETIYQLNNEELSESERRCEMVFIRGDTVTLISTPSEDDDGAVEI
T2 sequence 3: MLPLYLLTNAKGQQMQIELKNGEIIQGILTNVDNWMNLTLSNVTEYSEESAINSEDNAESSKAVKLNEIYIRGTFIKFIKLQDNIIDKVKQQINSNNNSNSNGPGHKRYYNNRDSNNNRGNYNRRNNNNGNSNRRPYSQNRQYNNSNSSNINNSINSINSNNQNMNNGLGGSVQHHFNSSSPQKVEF
T2 sequence 4: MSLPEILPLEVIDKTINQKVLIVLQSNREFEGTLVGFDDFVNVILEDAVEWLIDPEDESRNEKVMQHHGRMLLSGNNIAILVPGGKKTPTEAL
T2 sequence 5: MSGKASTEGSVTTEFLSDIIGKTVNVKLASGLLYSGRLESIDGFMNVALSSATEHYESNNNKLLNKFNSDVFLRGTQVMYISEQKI
T2 sequence 6: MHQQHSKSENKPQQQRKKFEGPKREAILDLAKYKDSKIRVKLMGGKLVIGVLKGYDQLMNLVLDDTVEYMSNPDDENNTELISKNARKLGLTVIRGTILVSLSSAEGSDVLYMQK
T2 sequence 7: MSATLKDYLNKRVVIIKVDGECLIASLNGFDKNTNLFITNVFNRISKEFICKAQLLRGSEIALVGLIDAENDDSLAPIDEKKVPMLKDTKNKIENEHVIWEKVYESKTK

[3] = molecular target: T1, Lsm2-8fSNAP (unlabeled); experiment: fluorescence polarization; Hill 1.12; FP: 2x RNA stock 2 nM mixed 1:1 with protein, 100 mM NaCl, 20 mM Bis-Tris pH 7.0, 10 mM HCl, 1 mM TCEP, 5% glycerol, yeast tRNA, BSA. EMSA: 100 mM KCl, 20% sucrose, 20 mM Hepes pH 7, 1 mM EDTA, 1 mM TCEP, 0.01% Triton X-100 (RNA buffer), yeast tRNA, heparin, BSA, 30 min room temperature, 6% native PAGE at 4 C. CoSMoS buffer not in material.; conditions: protein: recombinant; tags: fast SNAP tag at C terminus of Lsm8 via flexible linker; His-tag removed with TEV; copies: 1;1;1;1;1;1;1; label: fluorophore
[4] = molecular target: T2, Lsm2-8 heteroheptamer WT; experiment: fluorescence polarization; Hill 1.18; FP: 2x RNA stock 2 nM mixed 1:1 with protein, 100 mM NaCl, 20 mM Bis-Tris pH 7.0, 10 mM HCl, 1 mM TCEP, 5% glycerol, yeast tRNA, BSA. EMSA: 100 mM KCl, 20% sucrose, 20 mM Hepes pH 7, 1 mM EDTA, 1 mM TCEP, 0.01% Triton X-100 (RNA buffer), yeast tRNA, heparin, BSA, 30 min room temperature, 6% native PAGE at 4 C. CoSMoS buffer not in material.; conditions: protein: recombinant; tags: His-tag removed with TEV; copies: 1;1;1;1;1;1;1; label: fluorophore
[5] = molecular target: T2, Lsm2-8 heteroheptamer WT; experiment: fluorescence polarization; Hill 1.26; FP: 2x RNA stock 2 nM mixed 1:1 with protein, 100 mM NaCl, 20 mM Bis-Tris pH 7.0, 10 mM HCl, 1 mM TCEP, 5% glycerol, yeast tRNA, BSA. EMSA: 100 mM KCl, 20% sucrose, 20 mM Hepes pH 7, 1 mM EDTA, 1 mM TCEP, 0.01% Triton X-100 (RNA buffer), yeast tRNA, heparin, BSA, 30 min room temperature, 6% native PAGE at 4 C. CoSMoS buffer not in material.; conditions: protein: recombinant; tags: His-tag removed with TEV; copies: 1;1;1;1;1;1;1; label: fluorophore
[6] = molecular target: T1, Lsm2-8fSNAP (unlabeled); experiment: fluorescence polarization; Hill 1.35; FP: 2x RNA stock 2 nM mixed 1:1 with protein, 100 mM NaCl, 20 mM Bis-Tris pH 7.0, 10 mM HCl, 1 mM TCEP, 5% glycerol, yeast tRNA, BSA. EMSA: 100 mM KCl, 20% sucrose, 20 mM Hepes pH 7, 1 mM EDTA, 1 mM TCEP, 0.01% Triton X-100 (RNA buffer), yeast tRNA, heparin, BSA, 30 min room temperature, 6% native PAGE at 4 C. CoSMoS buffer not in material.; conditions: protein: recombinant; tags: fast SNAP tag at C terminus of Lsm8 via flexible linker; His-tag removed with TEV; copies: 1;1;1;1;1;1;1; label: fluorophore

Binder: AGAGAUUUAUUUCGUUUU (ssRNA, 3' phosphate) [U6 95-112-P]
- Kd [1]: 12.8 ± 3.87 nM
- Kd [2]: 10.3 ± 4.1 nM

Binder: AGAGAUUUAUUUCGUUUUU (ssRNA, 3' cis-diol (2',3'-OH)) [U6 95-113-OH]
- Kd [3]: 6.7 ± 1.1 nM
- Kd [4]: 6.75 ± 1.15 nM

Binder: AGAGAUUUAUUUCGUUUU (ssRNA, 3' cis-diol (2',3'-OH)) [U6 95-112-OH]
- Kd [5]: 84.6 ± 16.8 nM
- Kd [6]: 114 ± 16.8 nM
